Experimental data reported in patent US20140113831A1 (published 2014).

Molecular target: T1, human PDGFRb (human, UniProt P09619 33-531)
T1 chain: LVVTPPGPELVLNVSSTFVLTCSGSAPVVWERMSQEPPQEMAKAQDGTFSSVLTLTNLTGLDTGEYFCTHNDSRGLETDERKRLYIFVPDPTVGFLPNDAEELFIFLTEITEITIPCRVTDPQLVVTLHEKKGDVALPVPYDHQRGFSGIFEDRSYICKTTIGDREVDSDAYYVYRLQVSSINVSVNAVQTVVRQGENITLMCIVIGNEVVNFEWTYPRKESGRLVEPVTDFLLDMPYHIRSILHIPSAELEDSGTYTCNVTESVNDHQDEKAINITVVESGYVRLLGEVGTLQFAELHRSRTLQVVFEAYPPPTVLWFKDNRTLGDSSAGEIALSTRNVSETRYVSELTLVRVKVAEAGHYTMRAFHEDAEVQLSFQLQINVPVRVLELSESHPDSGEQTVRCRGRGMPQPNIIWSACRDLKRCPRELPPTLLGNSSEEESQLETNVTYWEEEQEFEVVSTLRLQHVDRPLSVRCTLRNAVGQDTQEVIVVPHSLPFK
Assay: solution binding affinity (35S Met labeled)

B1: scFv XB2202-A4 (scFv, V domains shown)
VH: QVQLVQSGAEVKKPGSSVRVSCKASGGTFSRHAISWVRQAPGQGLEWIGGILPILKTPNYAQRFQGRVTINADESTSTVYMEMSSLRSEDTAVYYCATHGGDRSYWGQGTLVTVSS
VL: DVVMTQSPSSLSASVGDRVTITCQASQDISNWLNWYQQKPGKAPKLLIYEASNLETGVPSRFSGSGSGTDFTFTISSLQPEDIATYYCQQYNNVLRTFGQGTKVEIK
Kd: 0.03 nM
